Measurements: CN113214399A (SHENZHEN INNOVA NANOBODI CO LTD, dated 2021)

T1: 重组AFP抗原 (甲胎蛋白, α-fetoprotein) (UniProt P02771 19-609, limits assumed)
T1 construct: Bought recombinant antigen used to immunise the alpaca
T1 sequence (looked up): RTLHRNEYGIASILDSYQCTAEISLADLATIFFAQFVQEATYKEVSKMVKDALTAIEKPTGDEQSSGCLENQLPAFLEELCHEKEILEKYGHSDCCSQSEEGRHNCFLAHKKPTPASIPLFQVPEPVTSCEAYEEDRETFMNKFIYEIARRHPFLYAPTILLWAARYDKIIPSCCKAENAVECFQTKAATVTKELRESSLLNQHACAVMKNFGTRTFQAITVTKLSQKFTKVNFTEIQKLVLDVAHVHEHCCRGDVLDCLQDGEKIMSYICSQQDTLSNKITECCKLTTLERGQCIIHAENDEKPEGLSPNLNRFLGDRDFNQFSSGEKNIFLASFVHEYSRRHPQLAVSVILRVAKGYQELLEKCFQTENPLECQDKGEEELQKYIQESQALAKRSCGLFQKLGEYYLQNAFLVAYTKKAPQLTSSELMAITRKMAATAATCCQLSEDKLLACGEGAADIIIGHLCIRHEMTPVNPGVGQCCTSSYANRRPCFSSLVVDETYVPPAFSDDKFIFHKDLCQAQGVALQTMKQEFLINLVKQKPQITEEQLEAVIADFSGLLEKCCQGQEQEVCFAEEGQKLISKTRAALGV

T2: 血清标本中的AFP抗原 (UniProt P02771 19-609)
T2 construct: AFP in serum samples, detected by the double-antibody sandwich assay; also called 质控血清AFP; 标准血清中的AFP
T2 sequence (looked up): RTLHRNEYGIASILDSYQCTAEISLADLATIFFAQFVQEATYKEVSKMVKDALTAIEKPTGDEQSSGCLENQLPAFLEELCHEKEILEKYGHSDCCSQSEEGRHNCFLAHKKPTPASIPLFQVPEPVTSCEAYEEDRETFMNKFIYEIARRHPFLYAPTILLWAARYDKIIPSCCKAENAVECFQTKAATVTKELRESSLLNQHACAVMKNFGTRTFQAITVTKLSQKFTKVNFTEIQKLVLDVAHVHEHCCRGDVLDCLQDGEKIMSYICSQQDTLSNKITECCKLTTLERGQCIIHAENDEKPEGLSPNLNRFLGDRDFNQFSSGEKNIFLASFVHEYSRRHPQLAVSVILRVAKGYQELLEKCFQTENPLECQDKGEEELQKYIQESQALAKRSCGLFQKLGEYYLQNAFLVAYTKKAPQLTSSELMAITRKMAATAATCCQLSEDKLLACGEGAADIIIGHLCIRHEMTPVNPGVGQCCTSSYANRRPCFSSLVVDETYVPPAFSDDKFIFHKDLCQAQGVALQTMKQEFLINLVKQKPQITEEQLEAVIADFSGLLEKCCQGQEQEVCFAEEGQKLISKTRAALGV


How the values were obtained:
[1] = molecular target: T1, 重组AFP抗原 (甲胎蛋白, α-fetoprotein); assay: Biacore sequential injection on immobilised antigen
血清标本中的AFP抗原 = molecular target: T2, 血清标本中的AFP抗原; assay: Double-antibody sandwich chemiluminescence immunoassay, detection antibody

Row | Binder | binding result [1] | binding result (血清标本中的AFP抗原)
1 | 纳米抗体1C5 (VHH) VHH: QVQLQESGGGLVQAGGSLRLSCKASERTFSSYSMAWYRQAPGKKREFVASISWDDERTYYTDSVKGRFTISRPNAKNTVYLQMNSLKPEDTAVYYCAVGGLSDGLGPSYDYWGQGTQVTVSS | binds | 
2 | 带有化学发光区序列的纳米抗体1C5-HAP (other, Expressed in 293 cells) QVQLQESGGGLVQAGGSLRLSCKASERTFSSYSMAWYRQAPGKKREFVASISWDDERTYYTDSVKGRFTISRPNAKNTVYLQMNSLKPEDTAVYYCAVGGLSDGLGPSYDYWGQGTQVTVSSGGGGSGGGGSGGGGSIIPVEEENPDFWNREAAEALGAAKKLQPAQTAAKNLIIFLGDGMGVSTVTAARILKGQKKDKLGPEIPLAMDRFPYVALSKTYNVDKHVPDSGATATAYLCGVKGNFQTIGLSAAARFNQCNTTRGNEVISVMNRAKKAGKSVGVVTTTRVQHASPAGTYAHTVNRNWYSDADVPASARQEGCQDIATQLISNMDIDVILGGGRKYMFRMGTPDPEYPDDYSQGGTRLDGKNLVQEWLAKRQGARYVWNRTELMQASLDPSVTHLMGLFEPGDMKYEIHRDSTLDPSLMEMTEAALRLLSRNPRGFFLFVEGGRIDHGHHESRAYRALTETIMFDDAIERAGQLTSEEDTLSLVTADHSHVFSFGGYPLRGSSIFGLAPGKARDRKAYTVLLYGNGPGYVLKDGARPDVTESESGSPEYRQQSAVPLDEETHAGEDVAVFARGPQAHLVHGVQEQTFIAHVMAFAACLEPYTACDLAPPAGTTD |  | binds
